Biological target: Nedd4 on the surface of virus-infected MDCK cells (canine (MDCK cells))
Assay: cell-based or functional assay

With Human Nedd4 antibody Ab101AP as the substance, how does the inhibition of viral replication (ADCC mediated, in vitro) read?
The inhibition of viral replication (ADCC mediated, in vitro) was 80 % inhibition.

How did the inhibition of viral replication (ADCC mediated, in vitro) turn out when Human Nedd4 antibody Ab27979 was run?
Its inhibition of viral replication (ADCC mediated, in vitro) is 80 % inhibition.
